From patent publication US20040063148A1 come the findings set out here.

For one data set, the system named is T1, Gαt-rod peptide.
T1 sequence: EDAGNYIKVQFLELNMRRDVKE

For the next data set, the target named is Bovine brain calmodulin (UniProt P62157).

Turning to “PDE1A7 of bovine taste tissue (PDE of anion exchange fractions 6-7)”, in the data set with Gαt-rod peptide, the “PDE activity of fraction 6 (1 µM cGMP as substrate), 100 µM peptide” value was “The PDE activities of both fractions 6 and 11 are stimulated by the presence of the Gαt-rod peptide”. For “PDE4 of bovine taste tissue (anion exchange fractions 19-23)”, the “cAMP hydrolyzing activity of fractions 19-23, 1 mM CaCl2 and 4 µg/ml CaM” value in the data set with Bovine brain calmodulin is “The cAMP hydrolyzing activity of this forth peak is neither Ca^2+/CaM nor Gαt-rod peptide dependent”. Also, the “cAMP hydrolyzing activity of fractions 19-23, 100 µM peptide” value in the data set on Gαt-rod peptide was “The cAMP hydrolyzing activity of this forth peak is neither Ca^2+/CaM nor Gαt-rod peptide dependent”.

As to “PDE1A1 of bovine taste tissue (PDE of anion exchange fraction 11)”, the “PDE activity of fraction 11 (1 µM cGMP as substrate), 100 µM peptide” value in the data set on Gαt-rod peptide is “The PDE activities of both fractions 6 and 11 are stimulated by the presence of the Gαt-rod peptide”.
